Measurements: the supplement of paper PMC9170038

Test system: MS2 coat protein
Assay: apparent KD of MS2 coat protein; designed switch direction (-1 OFF switch, 1 ON switch): -1; higher = weaker reporter binding
Procedure, shortened: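 Normalised cluster fluorescence was curve-fitted, and each design's median over clusters is its apparent KD. Before this, SNAP-549-labelled MS2 coat protein was titrated from 0.7 or 1.5 nM, doubling to 3 µM, over RNA switches transcribed on Illumina chips by stalled E. coli RNA polymerase. Titrations had no input, 200 uM small-molecule ligand, or an oligonucleotide input, and steps lasted 0.8–1.5 h (lowest) to 10–20 min (highest).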

[1] = Eterna round: R95, input ligand: FMN 200 uM
[2] = Eterna round: R95, input ligand: microRNA oligo, concentration not stated
[3] = Eterna round: R95, input ligand: none

Sequence | apparent KD of MS2 coat protein (input ligand: FMN 200 uM) [nM] | apparent KD of MS2 coat protein (input ligand: none) [nM] | further results
GUGUUUGAUGAGGAUAUCGAUGUGGGUAUAUAGCGAGAAGGCAUUACAUGAGGAUCACCCAUGUAGUGUGGGUU [JR_Ex6_Sub024] (Eterna round: R97, puzzle: Exclusion 6) | 33.3 | 35.6 | 
GUGUUUGGUGUAGGAUAUGUUUGUGGGUCGCGGGCAGAAGGACAUGAGGAUCACCCAUGUUUCGGGCUUGGCUUGGGCGGGCGC [-21, -19 kcal and 14% A] (Eterna round: R96, puzzle: Exclusion NG 1) | 16.7 | 17.6 | apparent KD of MS2 coat protein (input ligand: microRNA oligo, concentration not stated): 12.4 nM
GUUAAACAUGAGGAUCACCCAUGUAAGGAUAUGCUGAGGUCGCGCUGACGUGACUGAAGCAGAAGGUACAAAUG [Mat - Mod of JL D62] (puzzle: Exclusion 1) |  |  | apparent KD of MS2 coat protein [1]: 85.4 nM; apparent KD of MS2 coat protein [2]: 48.7 nM; apparent KD of MS2 coat protein [3]: 73.9 nM
GUUAACGAUGAGGAUAUAUGAUAUCAAAGCAUCAUAGAAGGCAUCACAUGAGGAUCACCCAUGUGAUCUUCUUU [jl-ex6-4.10 ViennaUCT mod] (Eterna round: R97, puzzle: Exclusion 6) | 83.6 | 15.2 | 
GUUAACGUAGGAUAUUAGUACAUGAACAUGAGGAUCACCCAUGUGAGGUAGGUCUAAGAAUAAGAAGGGCGAAGAA [EX5 #27] (Eterna round: R97, puzzle: Exclusion 5) | 108 | 185 | 
GUUAACGUAGGAUAUUAGUACAUGAACAUGAGGAUCACCCAUGUGAGGUGGGUCUUAGAUUAAGAAGGGCGAAGAA [EX5 #30] (Eterna round: R97, puzzle: Exclusion 5) | 525 | 867 | 
GUUAAGUGAGGAUAUGGUGAGUAGUGCCUGAGCGCUGCUCACCAGAAGGCACAUGAGGAUCACCCAUGUAUAAC [Mat - Exclusion 4 - Mod of JL - D16] (puzzle: Exclusion 4) |  |  | apparent KD of MS2 coat protein [2]: 19.9 nM
GUUACUAUUGUGAGGAUAUACUUAUUAAUAAAUAGGUAGAAGGCACAUGAGGAUCACCCAUGUUUUAACUUUUC [lam1] (Eterna round: R97, puzzle: Brourd's mod of Exclusion 4) | 96.8 | 24.9 | 
GUUAGACAUGAGGAUCACCCAUGUGAGGAUAUGAUGCGAAUAAAGAAUGAAGUAAGCAUCAGAAGGCACAUAUG [Mat - Mod of Hyphema D30] (puzzle: Exclusion 1) |  |  | apparent KD of MS2 coat protein [2]: 235 nM
GUUAGUAUCUAGGAUAUCUAGUACAUAGUAUCUAGAGAAGGAGAUACAUGAGGAUCACCCAUGUUCUGUGAUCU [Exclusion 6 - 2:c] (puzzle: Exclusion 6) |  |  | apparent KD of MS2 coat protein [1]: 53 nM; apparent KD of MS2 coat protein [2]: 205 nM; apparent KD of MS2 coat protein [3]: 234 nM
GUUAUCGGAGGAUAUACAUGAGGAUCACCCAUGUGCCAGUAUGUACUAAUCCUUUAGAGUAGAAGGUCGAUAGG [Eternabot (L1) Solution 72] (Eterna round: R97, puzzle: Exclusion 3) | 198 | 118 | 
GUUAUGCGGCAGGAUAUCCAUCCGCGGUAUGAUGGAGAAGGGCCGACAUGAGGAUCACCCAUGUGCGUCCUAGG [jl-ex6-4.49 ViennaUCT mod] (Eterna round: R97, puzzle: Exclusion 6) | 155 | 53 | 
GUUCCACAUGAGGAUCACCCAUGUGAGGAUAUGGUUUCGCUGGCCGUAGCCAGUGGAACCAGAAGGCGCGUGAU [Mat - Exclusion 1 - JL Mod - D19] (Eterna round: R97, puzzle: Exclusion 1) | 80.8 | 67.3 | 
GUUCUGACAGGAUAUACAUGAGGAUCACCCAUGUGCCCUUGGAGAUGCAAAGCAUCUCGUAGAAGGGUCUGAAC [Omei Ex3 Model Bachelor's Dilema v29] (Eterna round: R97, puzzle: Exclusion 3) | 34 | 37.2 | 
